B1: CPEB3 Ribozyme (parent)
chain: UAACAGGGGGCCACAGCAGAAGCGUUCACGUCGCAGCCCCUGUCAGAUUCUGGUGAAUCUGCGAAUUCUGCUGUAUAUCUC

Variants of: B1
Test: self-cleavage, relative activity (ratio to wild type); higher = more cleavage; in vitro, sequencing
How it was run: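 Barcoded CPEB3 ribozyme mutants, produced by rounds of error-prone PCR, self-cleaved while being transcribed with T7 RNA polymerase for 5 hours at 37°C and during a subsequent 15 min DNase I step before EDTA was added. Sequencing of template-switched cDNA on Illumina gave cleaved and total reads, and DNA sequencing assigned barcodes to variants. Each variant's relative activity is its cleaved/total read fraction divided by the unmutated ribozyme's fraction, averaged across three batches. A variant needed a minimum of 5 reads.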

Compared with UAACAGGGGGCCACAGCAGAAGCGUUCUCGUCUCAGCCCCUGUCAGAUUCUGGUGAAUCUGCGAAUUCUGCUGUAUAUCUC, UAACAGGGGGCCACAGCAGAAGCGUUCUCGUCCCAGCCCCUGUCAGAUUCUGGUGAAUCUGCGAAUUCUGCUGUAUAUCUC is higher in self-cleavage: 0.14 for the first, 0.26 for the second.

Going from UAACAGGGGGCCACAGCAGAAGCGUUCUCGUCACAGCCCCUGUCAGAUUCUGGUGAAUCUGCGAAUUCUGCUGUAUAUCUC to UAACAGGGGGCCACAGCAGAAGCGUUCUCGUCGCAGCCCCUGUCAGAUUCUGGUGAAUUUGCGAAUUCUGCUGUAUAUCUC, the self-cleavage rises from 0.2 to 0.34.

First: UAACAGGGGGCCACAGCAGAAGCGUUCUCGUCGCAGCCCCUGUCAGAUUCUGGUGAAUAUGCGAAUUCUGCUGUAUAUCUC
Second: UAACAGGGGGCCACAGCAGAAGCGUUCUCGUCGCAACCCCUGUCAGAUUCUGGUGAAUCUGCGAAUUCUGCUGUAUAUCUC
The self-cleavage of the first is higher: 0.21 for the first, 0.08 for the second.

Going from UAACAGGGGGCCACAGCAGAAGCGUUCUCGUCGCACCCCCUGUCAGAUUCUGGUGAAUCUGCGAAUUCUGCUGUAUAUCUC to UAACAGGGGGCCACAGCAGAAGCGUUCUCGUCGCAUCCCCUGUCAGAUUCUGGUGAAUCUGCGAAUUCUGCUGUAUAUCUC, the self-cleavage rises from 0.37 to 0.41.

Compared with UAACAGGGGGCCACAGCAGAAGCGUUCUCGUCGCAGCCCCUGUCAGAUUCCGGUGAAUCUGCGAAUUCUGCUGUAUAUCUC, UAACAGGGGGCCACAGCAGAAGCGUUCUCGUCGCAGCCCCUGUCAGAUUCAGGUGAAUCUGCGAAUUCUGCUGUAUAUCUC is higher in self-cleavage: 0.73 for the first, 0.77 for the second.

First: UAACAGGGGGCCACAGCAGAAGCGUUCUCGUCGCAGCCCCUGUCAGAUUCUGGUGAAUCUACGAAUUCUGCUGUAUAUCUC
Second: UAACAGGGGGCCACAGCAGAAGCGUUCUCGUCGCAGCCCCUGUCAGAUUCUGGUGAAUCUGCGAGUUCUGCUGUAUAUCUC
The self-cleavage of the first is higher: 0.45 for the first, 0.35 for the second.

First: UAACAGGGGGCCACAGCAGAAGCGUUCUCGUCGCAGCCCCUGUCAGAUUCUGGUGAAUCUGCGAUUUCUGCUGUAUAUCUC
Second: UAACAGGGGGCCACAGCAGAAGCGUUCUCGUCGCAGCCCCUGUCAGAUUCUGGUGAAUCUGCGAAUUAUGCUGUAUAUCUC
The self-cleavage of the first is higher: 0.33 for the first, 0.32 for the second.

Going from UAACAGGGGGCCACAGCAGAAGCGUUCUCGUCGCAGCCCCUGUCAGAUUCUGAUGAAUCUGCGAAUUCUGCUGUAUAUCUC to UAACAGGGGGCCACAGCAGAAGCGUUCUCGUCGCAGCCCCUGUCAGAUUCUGUUGAAUCUGCGAAUUCUGCUGUAUAUCUC, the self-cleavage rises from 0.87 to 1.

UAACAGGGGGCCACAGCAGAAGCGUUCUCGUCGCAGCCCCUGUCAGAUUCUGGUGAAUCUGCGAAUUCUGCUGUAUAUUUC and UAACAGGGGGCCACAGCAGAAGCGUUCUCGUCGCAGCCCCUGUCAGAUUCUGGUGAAUCUGCGAAUUCUGCUAUAUAUCUC are the same in self-cleavage: 0.99 for the first, 0.99 for the second.

Going from UAACAGGGGGCCACAGCAGAAGCGUUCUCGUCGCAGCCCCUGUCAGAUUCUGGUGAAUCUGCGAAUUCUGCUUUAUAUCUC to UAACAGGGGGCCACAGCAGAAGCGUUCUCGUCGCAGCCCCUGUCAGACUCUGGUGAAUCUGCGAAUUCUGCUGUAUAUCUC, the self-cleavage falls from 1.37 to 0.42.

First: UAACAGGGGGCCACAGCAGAAGCGUUCUCGUCGCAGCCCCUGUCAGAAUCUGGUGAAUCUGCGAAUUCUGCUGUAUAUCUC
Second: UAACAGGGGGCCACAGCAGAAGCGUUCUCUUCGCAGCCCCUGUCAGAUUCUGGUGAAUCUGCGAAUUCUGCUGUAUAUCUC
The self-cleavage of the first is higher: 0.38 for the first, 0.2 for the second.

First: UAACAGGGGGCCACAGCAGAAGCGUUCUCAUCGCAGCCCCUGUCAGAUUCUGGUGAAUCUGCGAAUUCUGCUGUAUAUCUC
Second: UAACAGGGGGCCACAGCAGAAGCGUUCUCGUCGCAGCCGCUGUCAGAUUCUGGUGAAUCUGCGAAUUCUGCUGUAUAUCUC
The self-cleavage of the first is lower: 0.11 for the first, 0.27 for the second.

Compared with UAACAGGGGGCCACAGCAGAAGCGUUCUCGUCGCAGCCACUGUCAGAUUCUGGUGAAUCUGCGAAUUCUGCUGUAUAUCUC, UAACAGGGGGCCACAGCAGAAGCGUUCUCGUCGCAGCCUCUGUCAGAUUCUGGUGAAUCUGCGAAUUCUGCUGUAUAUCUC is higher in self-cleavage: 0.15 for the first, 0.48 for the second.

Compared with UAACAGGGGGCCACAGCAGAAGCGUUCUCGUCGCAGCCCCCGUCAGAUUCUGGUGAAUCUGCGAAUUCUGCUGUAUAUCUC, UAACAGGGGGCCACAGCAGAAGCGUUCUCGUCGCAGCCCCAGUCAGAUUCUGGUGAAUCUGCGAAUUCUGCUGUAUAUCUC is lower in self-cleavage: 0.73 for the first, 0.26 for the second.

Going from UAACAGGGGGCCACAGCAGAAGCGUUCUCGUCGCAGCCCCGGUCAGAUUCUGGUGAAUCUGCGAAUUCUGCUGUAUAUCUC to UAACAGGGGGCCACAGCAGAAGCGUUCUCGUCGCAGCCCCUGUCAGAUUCUGGUGAAUCUGAGAAUUCUGCUGUAUAUCUC, the self-cleavage rises from 0.14 to 0.33.

Compared with UAACAGGGGGCCACAGCAGAAGCGUUCUCGUCGCAGCCCCUGUCAGAUUCUGGUGAAUCUGUGAAUUCUGCUGUAUAUCUC, UAACAGGGGGCCACAGCAGAAGCGUUCUCGUCGCAGCUCCUGUCAGAUUCUGGUGAAUCUGCGAAUUCUGCUGUAUAUCUC is higher in self-cleavage: 0.19 for the first, 0.48 for the second.

Going from UAACAGGGGGCCACAGCAGAAGCGUUCUCGUCGCAGCCCCUGUCAGAUUCUGGUGAAUCUGCGAAUUCUACUGUAUAUCUC to UAACAGGGGGCCACAGCAGAAGCGUUCUCGUCGCAGCCCCUGUCAGAUUCUGGUGAAUCUGCAAAUUCUGCUGUAUAUCUC, the self-cleavage rises from 0.27 to 0.62.
